This passage reports Kd and IC50 results from the Immune Epitope Database (IEDB).

Usually Kd stands for the concentration at which binding is half-saturated. A low value points to a tighter complex. As usually defined, the IC50 is the concentration that gives 50% inhibition.

Some results are limits rather than exact numbers.

One assay deals with HLA-B*48:01. Nature of the assay: IEDB peptide-MHC binding, purified MHC/direct/fluorescence; filed as Kd, often an IC50 or EC50 that approximates it; ≥ and ≤ were set here for values at or beyond the usual limits of such assays.
Another assay has as its target HLA-B*07:02. Described as above. Particulars: source organism: Mycobacterium tuberculosis.
For the next assay, the target named is HLA-B*15:17. The assay is described as above.
Another assay concerns the target HLA-A*02:01. The description is as above. The note with it: source organism: Mycobacterium tuberculosis.
For a further assay, the target named is HLA-A*11:01. The assay is described as above.
The target in assay [1] is HLA-B*18:01. Described as above.
In another assay the target is HLA-A*31:01. The description is as above.
The target of another assay is HLA-B*15:01. The assay is described as above.
A further assay deals with HLA-B*46:01. Described as above.
Another assay concerns the target HLA-B*57:01. The description is as above.
A further assay concerns the target HLA-B*27:05. The assay is described as above.
In another assay the target is HLA-B*58:01. Described as above.
The target in the next assay is HLA-A*01:01. The description is as above.
The target of another assay is HLA-B*40:01. Described as above.
The next assay has as its target HLA-A*68:02. Nature of the assay: IEDB peptide-MHC binding, purified MHC/competitive/fluorescence; filed as Kd, often an IC50 or EC50 that approximates it; ≥ and ≤ were set here for values at or beyond the usual limits of such assays. The note with it: source organism: Mycobacterium tuberculosis variant bovis BCG str. Pasteur 1173P2.
The target of another assay is HLA-A*26:03. The description is as above. Particulars: source organism: Mycobacterium tuberculosis variant bovis BCG str. Pasteur 1173P2.
The target in assay [2] is HLA-A*69:01. The description is as above. The note with it: source organism: Mycobacterium tuberculosis variant bovis BCG str. Pasteur 1173P2.
A further assay concerns the target HLA-A*26:02. Described as above. The note with it: source organism: Mycobacterium tuberculosis variant bovis BCG str. Pasteur 1173P2.
For assay [3], the target named is HLA-B*18:01. The assay is described as above. The note with it: source organism: Human herpesvirus 4 strain B95-8.
Another assay concerns the target HLA-B*53:01. Nature of the assay: IEDB peptide-MHC binding, purified MHC/competitive/fluorescence; ≥ and ≤ were set here for values at or beyond the usual limits of such assays. The note with it: source organism: human gammaherpesvirus 4.
In the next assay the target is HLA-C*05:01. Nature of the assay: IEDB peptide-MHC binding, purified MHC/direct/fluorescence; filed as Kd, often an IC50 or EC50 that approximates it; ≥ and ≤ were set here for values at or beyond the usual limits of such assays. Particulars: source organism: Influenza A virus (A/Fort Monmouth/1/1947-mouse adapted(H1N1)).
In assay [4] the target is HLA-A*69:01. The description is as above. Particulars: source organism: Influenza A virus (A/whooper swan/Mongolia/6/05(H5N1)).
The target in the next assay is HLA-A*26:01. The assay is described as above. The note with it: source organism: Influenza A virus(A/swine/Shandong/fZC/2003(H9N2)).
Another assay deals with HLA-A*80:01. Described as above. The note with it: source organism: Influenza A virus (A/whooper swan/Mongolia/6/05(H5N1)).
The target of another assay is HLA-A*03:01. The description is as above. Particulars: source organism: Influenza A virus (A/whooper swan/Mongolia/6/05(H5N1)).
A further assay concerns the target HLA-A*02:03. Nature of the assay: IEDB peptide-MHC binding, purified MHC/competitive/fluorescence; filed as Kd, often an IC50 or EC50 that approximates it; ≥ and ≤ were set here for values at or beyond the usual limits of such assays. Particulars: source organism: Influenza A virus (A/Fort Monmouth/1/1947-mouse adapted(H1N1)).
The mark [5] stands for this setting: source organism: Mycobacterium tuberculosis.
Setting [6] is: source organism: Influenza A virus (A/whooper swan/Mongolia/6/05(H5N1)).

In the case of QVFKGVVIR, the Kd was at least 20 µM with HLA-B*48:01 (setting [5]); at least 20 µM with HLA-B*07:02; at least 20 µM in the assay with HLA-B*15:17 (setting [5]); at least 20 µM in the assay with HLA-A*02:01; 0.694 µM in the assay with HLA-A*11:01 (setting [5]); at least 20 µM with HLA-B*18:01 [1] (setting [5]). Moreover, the Kd with HLA-A*31:01 (setting [5]) was 0.101 µM; with HLA-B*15:01 (setting [5]), at least 20 µM; in the assay with HLA-B*46:01 (setting [5]), at least 20 µM; with HLA-B*57:01 (setting [5]) it was at least 20 µM; with HLA-B*27:05 (setting [5]) it was at least 20 µM; with HLA-B*58:01 (source organism: Mycobacterium tuberculosis str. Haarlem), at least 20 µM. In addition, the Kd with HLA-A*01:01 (setting [5]) is at least 20 µM; with HLA-B*40:01 (setting [5]), at least 20 µM; in the assay with HLA-A*68:02, 1.77 µM; with HLA-A*26:03, at least 20 µM; in the assay with HLA-A*69:01 [2] it was at least 20 µM; with HLA-A*26:02 it was at least 20 µM.
The sequence LASAMRMLW showed a dissociation constant Kd with HLA-B*18:01 [3] of 2.27 µM. Besides, in the assay with HLA-B*53:01, the IC50 is 0.0783 µM.
SSDDFALIV: the Kd with HLA-B*48:01 (setting [6]) was at least 20 µM; with HLA-B*15:17 (setting [6]), 0.229 µM; with HLA-C*05:01 it was 0.016 µM; with HLA-A*11:01 (setting [6]), at least 20 µM; with HLA-B*18:01 [1] (setting [6]), at least 20 µM; with HLA-A*69:01 [4] it was 0.0188 µM. The Kd with HLA-A*26:01 is at least 20 µM; with HLA-A*80:01, 0.224 µM; in the assay with HLA-A*31:01 (setting [6]) it was at least 20 µM; with HLA-B*15:01 (setting [6]), at least 20 µM; with HLA-A*03:01 it was at least 20 µM; with HLA-B*46:01 (setting [6]) it was at least 20 µM. Besides, the Kd is at least 20 µM with HLA-B*57:01 (setting [6]); at least 20 µM with HLA-B*27:05 (setting [6]); at least 20 µM with HLA-B*58:01 (setting [6]); 0.113 µM with HLA-A*01:01 (setting [6]); at least 20 µM in the assay with HLA-B*40:01 (setting [6]); at least 20 µM with HLA-A*02:03.
